Experimental findings from the DeepSol protein solubility set are described below.

This data set in a line: soluble on expression in E. coli; label from the status in PepcDB or PDB records.
For “MAGAITHDHAAAAQGRQGGPLIVTEDVELLDDLLRLCAAAGARPEVHHTVPDGRGTWEAAPLVLVGDDAARRVRGAARRRGVVLVGRDQDDSGVWRRAVEIGADHVLLLPDGEQWLVDRIADVAEGVGRPALTVGVIGGRGGAGASTLACALAVTSARQGRRTLLVDADPLGGGLDVLLGGETAEGLRWPAFAASRGRVGGGALEESLPELHALRVLSWDRGDAVAVPPQAVRAVLAAARRRGGAVVVDLPRRVDEGAAEALAQVDLGVLVVPAELRAIAAAARVASAAGMVLGDLRVAVRGPYAPGLDDREVARLLGLPLLGEVPAEPPVPDGGVPPGGAARGPLARFCAVFWDRALVEAGGVLEHHHHHH”, the “soluble on expression in E. coli” value is listed as “not soluble”.
As for “MAGAMRKMAVYLGLVEDDGYDGRGFDPDDDFEPELDPEPERDHRRHEPAHQSHGAHQSQRDEEVRVVQPPAQREPMPRAASLAAESSRPARIAPVASITQERASLEKSAPVIMPKVVSEREPYRITTLHPRTYNEARTIGEHFREGTPVIMNLTEMDDTDAKRLVDFAAGLVFGLHGSIERVTQKVFLLSPANVDVTAEDKARIAEGGFFNQSLEHHHHHH”, the entry is “not soluble”; as for “MAGDGSLVASFGDIDRATTVTTIVAGVGSSNPEGWNTYVDRARTVSASTGSATVLWLGYQAPASIPAAVSGAAANRAAADLQRFQAALQSRNPHQRKVVMGYSYGSTVVGKAASSGELSADALVLVGSPGAGVSHSSQLGAPVYAVTGSADPIGFAGTQYDGIHGTDPTAALFGATVWDSPSTHSGYWNDQEFLGNVAEVVRGKLEHHHHHH”, “not soluble”.
For the sequence “MAGDKGGGDGERRLRQPIVVVLGHVDHGKTTLLDKIRRTAVAAKEAGGITQHIGASIVPADVIEKIAEPLKKVIPVKLVIPGLLFIDTPGHELFSNLRRRGGSVADFAILVVDIMEGFKPQTYEALELLKERRVPFLIAANKIDRIPGWKPNPDAPFIETIRRQDPKVREILEQRVYEIVGKMYEAGLPAELFTRIKDFRRKIAIVPVSARTGEGIPELLAVLAGLTQTYLKERLRYAEGPAKGVVLEVKEMQGFGTVVDAVIYDGVLKKEDIIVVGGREGPIVTRVRALLMPAPLQDIRSREARFVQVDRVYAAAGVRIAAPGLDDVIAGSPIYAAESEEEARKLMEAVQREIEELRFRTENIGVVVKADTLGTLEALVEALRRRGVPVRLADIGPVSRSDVLDAAVTRKIDPYLGVVLAFNVKVLPEAEEEASRAGVKIFRESMIYKLIEDYEEWVKKEKEAERLKALNSLIRPGKFRILPGYVFRRSDPAIVGVEVLGGVIRPGYPVMDSQGRELGRIMAIKDRDRSLEEARLGAAVAVSIQGRILIGRHANEGDILYTNVPAQHAYKILTEFKDLVSKDELDVLREIAEIKRRAADHEYNKVLLRLKIKRVSQ”, the “soluble on expression in E. coli” value is “soluble”.
As for “MAGDPMLTAPPKEAARPTLMPRAQSYKDLTHLPAPTGKIFVSVYNIQDETGQFKPYPASNFSTAVPQSATAMLVTALKDSRWFIPLERQGLQNLLNERKIIRAAQENGTVAINNRIPLQSLTAANIMVEGSIIGYESNVKSGGVGARYFGIGADTQYQLDQIAVNLRVVNVSTGEILSSVNTSKTILSYEVQAGVFRFIDYQRLLEGEVGYTSNEPVMLCLMSAIETGVIFLINDGIDRGLWDLQNKAERQNDILVKYRHMSVPPESLEHHHHHH”, the entry is “not soluble”; as for “MAGDPMYHSRPIFNIIDSSNIQDRRELKLVLRHTEIAYRSFAQEDLIPAQRSWMNSIINTDVPIDPAIDEVVKRFCEVACLPGPAGIPLNIILNDSLTYVYCSFQAMRKYAHKRFYDGVSDEGVVISTVPPYAEGITKETMRSWHNNVCQNTSNETHDLDAYIAFLPTSLQNPSFSHMKIGCDSFLAPSRVDPFCVEIIAVGKALFHDNGLKKNPRCGGQWLPPSCLEHHHHHH”, “not soluble”; as for “MAGHSIPHFQNDGGHSVIEIGVKEFMCTGASVPFDHPHIFIDMGDDNEKVCSYCSTLYRYNPSLKAEQTNPPGCVFHVKAA”, “not soluble”.
Regarding “MAGKQITLASLPIGKKARVKSLTLDGTIRRRIMDLGLVSDTIVEALQKSPSGDPTAYHIRGAVIALRSEEASKIMVEVN”, the “soluble on expression in E. coli” value is recorded as “not soluble”.
As for “MAGNFWQSSHYLQWILDKQDLLKERQKDLKFLSEEEYWKLQIFFTNVIQALGEHLKLRQQVIATATVYFKRFYARYSLKSIDPVLMAPTCVFLASKVEEFGVVSNTRLIAAATSVLKTRFSYAFPKEFPYRMNHILECEFYLLELMDCCLIVYHPYRPLLQYVQDMGQEDMLLPLAWRIVNDTYRTDLCLLYPPFMIALACLHVACVVQQKDARQWFAELSVDMEKILEIIRVILKLYEQWKNFDERKEMATILSKMPKPKPPPNSEGEQGPNGSQNSSYSQS”, the “soluble on expression in E. coli” value is on record as “soluble”.
The same measure for “MAGPLSGLRVVELAGIGPGPHAAMILGDLGADVVRIDRPSSVDGISRDAMLRNRRIVTADLKSDQGLELALKLIAKADVLIEGYRPGVTERLGLGPEECAKVNDRLIYARMTGWGQTGPRSQQAGHDINYISLNGILHAIGRGDERPVPPLNLVGDFGGGSMFLLVGILAALWERQSSGKGQVVDAAMVDGSSVLIQMMWAMRATGMWTDTRGANMLDGGAPYYDTYECADGRYVAVGAIEPQFYAAMLAGLGLDAAELPPQNDRARWPELRALLTEAFASHDRDHWGAVFANSDACVTPVLAFGEVHNEPHIIERNTFYEANGGWQPMPAPRFSRTASSQPRPPAATIDIEAVLTDWDG”: “soluble”; for “MAHAGRTGYDNREIVMKYIHYKLSQRGYEWDAGDDVEENRTEAPEGTESEVVHLTLRQAGDDFSRRYRRDFAEMSSQLHLTPFTARGRFATVVEELFRDGVNWGRIVAFFEFGGVMCVESVNREMSPLVDNIALWMTEYLNRHLHTWIQDNGGWDAFVELYGPSMR”: “soluble”; for “MAHHHHHHGICSSAPTLGEIWKRKLNQLDAKEFMAYRRRFVVEVDRNEAREALAKGKTNTGHAVSRGTAKLAWIDERGGVELKGTVVDLGCGRGSWSYYAASQPNVREVKAYTLGTSGHEKPRLVETFGWNLITFKSKVDVTKMEPFQADTVLCDIGESNPTAAVEASRTLTVLNVISRWLEYNQGCGFCVKVLNPYSCDVLEALMKMQARFGGGLIRVPLSRNSTHEMYFVSGIKNNIMGNVTAVSRQLLKRMEEQGGERVVPDYKFSTGTRSNL”: “soluble”.
The same measure for “MAHHHHHHMAANCIFCKIIKGDIPCAKVAETSKALAFMDINPLSRGHMLVIPKEHASCLHELGMEDAADVGVLLAKASRAVAGPDGSMQYNVLQNNGSLAHQEVPHVHFHIIPKTDEKTGLKIGWDTVKVASDELAEDAKRYSEAIAKI”: “soluble”.
As for “MAHHHHHHMADSIKSSNSFQKLDNIDAKETSTVDRKWVALTAYQPVDVVTKTVEVPIIKTVEKYVPKTIIQEKIIHVPKNVTHIVEKIVEVPEVKYIEKIVEVPHIHYKNKYVPKIEIVEKVVERQKIIEKWHDKIVEVPQIKEVVRFKQIEDSEEIIKYVPRNSKNIDWEDEYKKYTESKGLQRYSLDQNNIYQQANSFNQFNENAYNQNAFNRSYELLNKQSSVKSQNNASGENFSQMNFYNQYSGANFEQERSIQASNFEPSGSMQLKRLSSEEIKPAGCCSAACT”, the entry is “soluble”; as for “MAHHHHHHMAITLPKLKYALNALSPHISEETLSFHYNKHHAGYVNKLNGLIKDTPLANKSLTDILKESTGAIFNNAAQIWNHSFYWDSMGPNCGGEPHGEIKEKIQEDFGSFNNFKDQFSNVLCGHFGSGWGWLALNKNNKLVILQTHDAGNPIKENTGIPILTCDVWEHAYYIDYRNDRLSYVKAWWNLVNWNFANENLKNALNK”, “soluble”; as for “MAHHHHHHMALISQSFAERYAELVARVPTHTELLLDVQRREVGERKALEEMCQVAFQDVLHVAGVMIADKKALGRGALAHRNRFEVALYKKQTAVWFQAAPPRKVALPTTRPLHGFPHAAFAELCQEERELRQWHYGVERRLREHIEEACGRAWFFLNVINETARSESLSRQRLQHEEDEDFTAIKQSFFRAVPADYYRNVVIARYGQTISAIEQAKDLTFEELEEKVRAALMEEEEASWRSAYQYLQDMYDAQLFALNHREVLGRYELEEEERNTLFPLILQCCREDFGIVFYHIPALALHFNSSQPCLRALCVAQLQEAPRRMAATRSRFSWIPAFDLAGMASELGLEEDGDEIEDSAEGETQEAEGSTDGGDDLHNALPPPVDDMPPINTASTMVFEPEVGSSKVPEPETKREEAEVDTSQSAVVALAQRTHEESVLATEMEEHVPVSCAGEENE”, “soluble”.
On to “MAHHHHHHMAQAIRDAFTEEASLTVVEEWSSKVVSDLEARATNAHHARQGVLVKPYTADAAETVPVTIVASLREFQGQLYDIYRAAETIRTVIACRIPELKAEDNLGVEVQMTVLKMIDSLEGKLLGSSSGDKEGGAPGVAGMYAAREYLAARGSVEDKVLGKVSDDDKKTKSAAPSVLMELQQIDADALLKLELSATQISTQIRSFINAYAVNWKKLIQPRTNASEKSIS”, for which the “soluble on expression in E. coli” value is given as “soluble”.
As for “MAHHHHHHMAVENMLGKLKQNPGDYYNSVSALFFHRPYNMMPIQAMSFLYVRGLARATSAEHKKYFEELCSKAKVEPAAVQTELDVIPDYFGMIESGQEPKDVFGATNKVAKAVRADKDFSSLLSRKMSLGSSAMANFGNLYTASLPCWIAAGLEEAYNKKQDITNHPMVMVGYGSGDASEAIPIVPVKGWEEAASKINVAAALEKPVNLTREQYEGMHNGSLKSDLAAGNRQKEFVVAHIGSRNDMAFQDIGIEYYQFVH”, the “soluble on expression in E. coli” value is “not soluble”.
“MAHHHHHHMCATSKENTPEFYKKYVKDIIDRIEDNARREFEAIWRDHESHPGMSKTLISDTLSEKNVKVRANILASDVFKNKKLVRYILFHYTPKTLLEVVPVDELMNRVPIAYQHAICAMWLASEYVYSTGIDSNEFDFFSFMSAHIERASAMAKEQSR”: the “soluble on expression in E. coli” value was “soluble”.
The same measure for “MAHHHHHHMCGSCWAFAAIGNIEGQWFLAGNPLTRLSEQMLVSCDNTNSGCGGGSSLKAFKWIVDRNNGAVYTEESYPYHSCIGIKLPCTTSGHTVGATITGHVELPQDEAQIAAWLAVNGPVAVVVDASSWIFYTGGVLTNCVSKKLDHAVLLVGYNDSATAPYWIIKNSWTTQWGEDGYIRIAKGSNQCLVKEEASSAVVGGPGATPEPTTTTTTSAPGPSPSCFVQMSCTDAACIVGCENVTLPTGQCLLTTSGASAIVTCGAETLTEEVFLTSTHCSGPSVRSSVPLNKCNRLLRGSVEFFRGSSSSGRLADVDRQRRYQPYHSRHRRL”: “soluble”; for “MAHHHHHHMCISELRSLRGHGRNVYIIYDVAKEGTPPPRHFASTSGWGMIAVSFPKVTNYDEWEKQLKAARIIMNCPDGMDVKAMCAWMERDGDTDEQTKYWKMVETHMEKVGPIPRHIFYAKGINARFGAVENALEAINSRYADDRFILPGGGLWYAKDPSQKLVRIVRIRGERGNERFRNAPICYFLGSRSANILAKAMSEKDFLLLVWGVRKTISSAYLEKFCLRALIFGRFFSAMAEELKELNSPAHDIQDTVLKANPGAHPTEICEIPGVGKIDAKQNINHRVLYIPMLRDFPLVDCFFFVESPRRTLVGLQMTTAGEHHTTTSTVRQFTEHLSKFFNGWDEFAQGLSWRDYLCAARRQHADEWLAEMWCRRPAECGRC”: “not soluble”.
On to “MAHHHHHHMDMLGAVVVENSNLTTTLPAPHTLHERPAEGFSPQRRVLLVPLTEAYEHTTGWMVPTEMEGAQLAMSLYVNDTPVSLPPNWQLSPAKEAAAVKTAMAVDITPLVLSIERDLFSLQVIFSGDVAEMEMWRGVIACVLVEEVELAQLGERIVSTYHKRRAPVIRRSPLSSCGERGVVAITEVSVKIQCPITTLTMEIPVRGMYCEHLQCMELAAVLIQCARQNVWNCPLCSAAMKPEDIIVNHRLKDWIASHSREVVAQVEYIVETELGRPLKIVYKAARPEQHSTIEVIDDEEK”, for which the “soluble on expression in E. coli” value is given as “not soluble”.
